T1: human interleukin 1 receptor accessory protein, membrane-bound form on cells (human, UniProt Q9NPH3 21-570)
T1 construct: On IL1-RAP-transfected 293 cells, AML cell lines (EOL-1, HNT-34, OCI-AML2, OCI-AML3), primary AML cells and HEK-Blue IL-1β cells; also called IL1-RAP; receptor IL1-RAP
T1 sequence: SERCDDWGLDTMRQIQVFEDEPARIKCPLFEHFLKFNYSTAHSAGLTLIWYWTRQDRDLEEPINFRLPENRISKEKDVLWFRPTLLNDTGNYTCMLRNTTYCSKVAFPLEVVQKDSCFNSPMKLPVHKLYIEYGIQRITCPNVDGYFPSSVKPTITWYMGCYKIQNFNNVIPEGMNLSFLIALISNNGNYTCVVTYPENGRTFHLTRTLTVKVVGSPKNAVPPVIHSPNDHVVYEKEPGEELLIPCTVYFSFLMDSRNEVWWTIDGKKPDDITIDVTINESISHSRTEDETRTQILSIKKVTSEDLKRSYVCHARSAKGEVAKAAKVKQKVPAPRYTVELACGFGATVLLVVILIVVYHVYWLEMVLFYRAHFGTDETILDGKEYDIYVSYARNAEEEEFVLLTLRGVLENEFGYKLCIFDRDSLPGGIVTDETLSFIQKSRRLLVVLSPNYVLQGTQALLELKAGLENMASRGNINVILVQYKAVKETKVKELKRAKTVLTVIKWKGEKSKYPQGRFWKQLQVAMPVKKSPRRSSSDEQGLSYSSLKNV

T2: soluble IL1-RAP form (isoform 2) (human, UniProt Q9NPH3 21-350)
T2 construct: Expressed in and purified from 293 cells; also called Q9NPH3-2; soluble form IL1RAP
T2 sequence: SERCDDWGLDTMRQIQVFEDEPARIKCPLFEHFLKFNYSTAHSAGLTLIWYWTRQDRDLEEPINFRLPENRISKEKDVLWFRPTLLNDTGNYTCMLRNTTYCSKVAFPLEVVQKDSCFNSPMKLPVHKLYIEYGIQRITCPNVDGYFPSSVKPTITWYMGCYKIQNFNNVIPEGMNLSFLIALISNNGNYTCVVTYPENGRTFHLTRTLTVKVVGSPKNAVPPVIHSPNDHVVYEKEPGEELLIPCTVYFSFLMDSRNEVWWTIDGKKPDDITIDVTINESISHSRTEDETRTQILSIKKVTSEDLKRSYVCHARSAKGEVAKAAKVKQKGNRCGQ

T3: his-tagged extracellular domain (ECD) of IL1-RAP (human, UniProt Q9NPH3 21-367)
T3 construct: also called ECD IL1-RAP; IL1-RAP-His fusion protein
T3 sequence: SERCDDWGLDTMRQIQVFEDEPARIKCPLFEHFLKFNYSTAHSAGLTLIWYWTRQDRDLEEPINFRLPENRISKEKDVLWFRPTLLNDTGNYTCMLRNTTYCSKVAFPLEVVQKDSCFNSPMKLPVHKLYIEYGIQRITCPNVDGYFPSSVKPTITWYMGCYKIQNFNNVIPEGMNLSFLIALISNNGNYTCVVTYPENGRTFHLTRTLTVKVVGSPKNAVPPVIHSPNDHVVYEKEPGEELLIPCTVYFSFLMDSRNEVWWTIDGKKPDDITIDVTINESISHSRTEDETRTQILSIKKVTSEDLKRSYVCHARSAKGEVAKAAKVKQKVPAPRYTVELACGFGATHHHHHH

T4: IL1-RAP (antigen of the kinetic measurements of Tables 5A and 5B) (human, UniProt Q9NPH3 21-359, limits assumed)
T4 sequence: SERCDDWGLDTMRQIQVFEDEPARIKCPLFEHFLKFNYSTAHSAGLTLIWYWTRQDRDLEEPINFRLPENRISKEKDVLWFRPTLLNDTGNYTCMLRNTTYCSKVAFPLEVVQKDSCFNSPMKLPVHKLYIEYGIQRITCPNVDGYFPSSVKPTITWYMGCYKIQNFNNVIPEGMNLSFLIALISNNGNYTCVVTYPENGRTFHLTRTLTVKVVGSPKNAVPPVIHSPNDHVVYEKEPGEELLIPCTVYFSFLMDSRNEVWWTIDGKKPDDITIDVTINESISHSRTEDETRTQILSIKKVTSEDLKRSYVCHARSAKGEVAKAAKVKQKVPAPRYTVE

B1: anti-IL1-RAP antibody clone 2H8 (antibody, V domains shown)
VH: QIQLVQSGPELKKPGETVKISCKASGYTFTDYSMHWVKQAPGKGLKWMGWINTETGEPTYADDFKGRFAFSLETSASTAYLQINNLKNEDTATYFCARYYGYFDYWGQGTTLTVSS
VL: DIVLTQSPASLAVSLGQRATISCRASESVDSYGNSFMHWYQQKPGQPPKLLIYRASNLESGIPARFSGSGSRTDFTLTINPVEADDVATYYCQQSNEDPWTFGGGTKLEIK
notes: Mouse monoclonal antibody; also called 2H8.3
B2: chimeric 54.9D7 (antibody, V domains shown)
VH: HVQLQQSGPELVRPGASVKLSCKASGYIFITYWMNWVKQRPGQGLEWVGQIFPASGTTYYNELFEGKATLTVDTSSNTAYMHLTSLTSEDSAVYYCARTDFYRYDGGYALDYWGQGTSLTVSS
VL: DIVLTQSPISLAVFLGQRATISCRASQSVSTSGYSSMHWYQQKAGQPPKLLIKYASDLESGVPVRFSGSGSGTDFILNIHPVEVEDIATYYCHHSWGIPMYTFGGGTKLEIKR
notes: Chimeric antibody; also called Chi54.9D7

Assays:
[1] = molecular target: T1, human interleukin 1 receptor accessory …; experiment: FACS titration on EOL-1 cells
[2] = molecular target: T1, human interleukin 1 receptor accessory …; experiment: FACS titration on HNT-34 cells
[3] = molecular target: T1, human interleukin 1 receptor accessory …; experiment: FACS titration on IL1-RAP transfected 293 cells
[4] = molecular target: T2, soluble IL1-RAP form (isoform 2); experiment: sandwich ELISA: plate coated with goat anti-IL1RAP antibody, then soluble IL1-RAP, then 2H8
Description: (§1) The extracellular domain of IL1-RAP (Q9NPH3-4) and soluble IL1-RAP form (Q9NPH3-2) were expressed and purified from 293 cells. Sandwich ELISA was performed. The binding data shown in FIGS. 3A and 3B supports the conclusion that clone 2H8 binds to membrane-bound IL1-RAP better compared to soluble IL1-RAP form.

[5] = molecular target: T3, his-tagged extracellular domain (ECD) …; experiment: sandwich ELISA: plate coated with goat anti-IL1RAP antibody, then extracellular domain of IL1-RAP, then 2H8
Description: as §1

[6] = molecular target: T1, human interleukin 1 receptor accessory …; experiment: FACS titration on EOL-1 cells; remark: listed apart in the source
[7] = molecular target: T4, IL1-RAP (antigen of the kinetic …); experiment: kinetics, Table 5A; method and antigen form not stated
[8] = molecular target: T4, IL1-RAP (antigen of the kinetic …); experiment: kinetics, Table 5B; method and antigen form not stated
[9] = molecular target: T4, IL1-RAP (antigen of the kinetic …); experiment: kinetics, Table 5A; method and antigen form not stated; Table 5A
[10] = molecular target: T4, IL1-RAP (antigen of the kinetic …); experiment: kinetics, Table 5B; method and antigen form not stated; Table 5B
[11] = molecular target: T1, human interleukin 1 receptor accessory …; experiment: FACS on EOL-1 cells, FITC; antibody concentration not given

Binder | EC50 (read off the curve) [1] [µg/mL] | EC50 (read off the curve) [2] [µg/mL] | EC50 (read off the curve) [3] [µg/mL] | EC50 (read off the curve) [4] [µg/mL] | EC50 (read off the curve) [5] [µg/mL] | EC50 (read off the curve) [6] [nM] | koff [7] [s⁻¹] | kon [7] [M⁻¹ s⁻¹] | koff [8] [s⁻¹] | kon [8] [M⁻¹ s⁻¹] | Kd [9] [nM] | Kd [10] [nM] | MFI [11]
B1 | ~1 | ~0.5 | ~0.9 | ~1 | ~0.6 |  |  |  |  |  |  |  | 
B2 |  |  |  |  |  | ~200 | < 1e-07 | 143000 | < 1e-07 | 158000 | < 0.001 | < 0.001 | 32.2

— US20190338038A1 (CELLERANT THERAPEUTICS, published 2019)
